{"source": "IntAct's records for PubMed 14507921", "molecular_target": "ANTXR1, Q9H6X2-2", "sequence (Q9H6X2 other isoform, or with tags, fused parts or gaps)": "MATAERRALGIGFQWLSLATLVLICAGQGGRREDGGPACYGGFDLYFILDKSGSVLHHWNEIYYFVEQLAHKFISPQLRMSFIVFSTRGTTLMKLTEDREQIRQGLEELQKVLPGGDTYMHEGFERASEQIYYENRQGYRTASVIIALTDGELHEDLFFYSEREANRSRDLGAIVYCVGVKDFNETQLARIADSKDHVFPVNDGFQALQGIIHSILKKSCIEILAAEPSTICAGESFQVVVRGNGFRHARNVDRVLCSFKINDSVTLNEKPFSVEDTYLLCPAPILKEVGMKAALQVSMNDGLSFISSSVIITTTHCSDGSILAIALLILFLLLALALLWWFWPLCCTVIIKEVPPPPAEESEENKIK"}
{"substance": "Protective antigen (Bacillus anthracis) (from UniProt P13423) D712N", "values": [{"measurement": "effect of a mutation on the interaction", "value": "decreasing interaction"}]}
